Experimental findings from patent publication US20230272099A1 (Chugai, published 2023) are described below.

Substitutions are numbered along the chain they refer to.

T1: human FcgRIIb extracellular domain (human, UniProt P31994 43-217)
T1 construct: extracellular domain; also called hFcgRIIb
T1 sequence (looked up): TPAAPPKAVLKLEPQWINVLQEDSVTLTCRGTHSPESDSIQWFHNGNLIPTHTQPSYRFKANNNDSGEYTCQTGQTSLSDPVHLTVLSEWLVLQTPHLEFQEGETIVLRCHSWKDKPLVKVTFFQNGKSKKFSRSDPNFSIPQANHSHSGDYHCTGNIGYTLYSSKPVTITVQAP

T2: human FcgRIIa type R extracellular domain (human, UniProt P12318 34-217)
T2 construct: extracellular domain; also called hFcgRIIaR
T2 sequence (looked up): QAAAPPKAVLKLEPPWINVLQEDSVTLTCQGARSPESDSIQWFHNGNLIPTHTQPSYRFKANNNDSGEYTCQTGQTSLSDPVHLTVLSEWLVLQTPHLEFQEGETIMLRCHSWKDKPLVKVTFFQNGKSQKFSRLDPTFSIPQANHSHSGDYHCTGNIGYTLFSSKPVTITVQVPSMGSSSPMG

T3: human FcgRIIa type H extracellular domain (human, UniProt P12318 34-217)
T3 construct: extracellular domain; also called hFcgRIIaH
T3 sequence (looked up): T2 sequence (looked up) with R134H

B1: A375-P587/B167-Lamlib (antibody, human IgG1, lambda)
heavy: EVQLVESGGGLVKPGGSLRLSCAASGFTFSTFTMNWVRQAPGKGLEWVSSISSKSTYIEYADSFKVRFTISRDNAKNSLYLQMNSLRAEDTAVYYCARYGAKNFLNWVFDYWGQGTLVTVSSASTKGPSVFPLAPSSKSTSGGTAALGCLVKDYFPEPVTVSWNSGALTSGVHTFPAVLQSSGLYSLSSVVTVPSSSLGTQTYICNVNHKPSNTKVDKKVEPKSCDKTHTCPPCPAPDLLGGDSVFLFPPKPKDTLMISRTPEVTCVVIDVAEEDGEVKFNWYVDGVEVHNAKTKPREEQYNSTYRVVSVLTVLHQDWLNGKEYKCKVSNKALPAPIEKTISKAKGQPREPQVYTLPPSRDELTKNQVSLTCLVKGFYPSDIAVEWESNGQPENNYKTTPPVLDSDGSFFLYSKLTVDKSRWQQGNVFSCSVMHEALHNHYTQKSLSLSP
light: QSALTQPPSASGSPGQTVTISCTGTRYDVGYYEYVSWYQQHPGKAPKLMIYETSKRLSGVPDRFSGSKSGNTASLTVSGLQAEDEADYYCSSYRYEHQVSFGGGTKLTVLGQPKAAPSVTLFPPSSEELQANKATLVCLISDFYPGAVTVAWKADSSPVKAGVETTTPSKQSNNKYAASSYLSLTPEQWKSHRSYSCQVTHEGSTVEKTVAPTECS
notes: copies: 2 + 2
B2: A375-SCF027/B167-Lamlib (antibody, human IgG1, lambda)
heavy: EVQLVESGGGLVKPGGSLRLSCAASGFTFSTFTMNWVRQAPGKGLEWVSSISSKSTYIEYADSFKVRFTISRDNAKNSLYLQMNSLRAEDTAVYYCARYGAKNFLNWVFDYWGQGTLVTVSSASTKGPSVFPLAPSSKSTSGGTAALGCLVKDYFPEPVTVSWNSGALTSGVHTFPAVLQSSGLYSLSSVVTVPSSSLGTQTYICNVNHKPSNTKVDKKVEPKSCDKTHTCPPCPAPEYLGGDSVFLFPPKPKDVLMISRTPEVTCVVIDVSHEDPEVKFNWYVDGVEVHNAKTKPREEQYNSTYRVVSVLPVLHQDWLNGKEYKCKVSNKALPKPIEKTISKAKGQRREPQVYTLPPSREEMTKNQVSLTCLVKGFYPSDIAVEWESNGQPENNYKTTPPVLDSDGSFFLYSKLTVKKSRWQQGNVFSCSVMHEALHNHYTQKSLSLSP
light: B1 light
B3: A375-SCF028/B167-Lamlib (antibody, human IgG1, lambda)
heavy: B2 heavy with G242D, I269V
light: B1 light
B4: A375-SCF025/B167-Lamlib (antibody, human IgG1, lambda)
heavy: B2 heavy with Y239L, L240W, G241N, D243P, V255T, I269V, H273D, Q300L, P312T, K331T
light: B1 light
B5: A375-SCF025a/B167-Lamlib (antibody, human IgG1, lambda)
heavy: EVQLVESGGGLVKPGGSLRLSCAASGFTFSTFTMNWVRQAPGKGLEWVSSISSKSTYIEYADSFKVRFTISRDNAKNSLYLQMNSLRAEDTAVYYCARYGAKNFLNWVFDYWGQGTLVTVSSASTKGPSVFPLAPSSKSTSGGTAALGCLVKDYFPEPVTVSWNSGALTSGVHTFPAVLQSSGLYSLSSVVTVPSSSLGTQTYICNVNHKPSNTKVDKRVEPKSCDKTHTCPPCPAPELWNGPSVFLFPPKPKDTLMISRTPEVTCVVVDVSDEDPEVKFNWYVDGVEVHNAKTKPREELYNSTYRVVSVLTVLHQDWLNGKEYKCKVSNTALPKPIEKTISKAKGQRREPQVYTLPPSREEMTKNQVSLTCLVKGFYPSDIAVEWESNGQPENNYKTTPPVLDSDGSFFLYSKLTVKKSRWQQGNVFSCSVMHEALHNHYTQKSLSLSP
light: B1 light

T5 sequence (P12314 16-292): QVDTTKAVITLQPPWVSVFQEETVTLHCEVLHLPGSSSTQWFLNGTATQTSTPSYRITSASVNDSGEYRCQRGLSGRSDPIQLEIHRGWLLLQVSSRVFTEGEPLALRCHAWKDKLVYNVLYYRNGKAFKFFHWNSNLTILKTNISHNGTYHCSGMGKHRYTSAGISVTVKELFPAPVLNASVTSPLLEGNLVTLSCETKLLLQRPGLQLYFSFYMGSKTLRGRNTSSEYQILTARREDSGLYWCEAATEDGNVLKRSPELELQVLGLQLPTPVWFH
T6 sequence (P08637 17-208): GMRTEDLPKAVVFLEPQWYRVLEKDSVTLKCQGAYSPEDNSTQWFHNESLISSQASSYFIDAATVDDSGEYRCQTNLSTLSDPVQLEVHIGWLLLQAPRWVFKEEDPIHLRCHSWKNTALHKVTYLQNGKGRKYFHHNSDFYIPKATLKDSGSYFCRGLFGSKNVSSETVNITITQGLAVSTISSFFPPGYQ

The target of one assay is human FcRn (human, UniProt P55899 24-290; P61769 21-119). Kind of assay: SPR 25C pH 6.0, steady state. As to the method: Biacore T200 (GE Healthcare) was used to assess the binding activity to human FcRn. Measurement was performed at 25° C. using 50 mM phosphate, 150 mM NaCl, 0.05 w/v %-P20, pH 6.0 as buffer. Human FcRn proteins used for this determination were prepared by the procedure described in WO2010107110. About 400 RU of antibody was captured using a sensor chip immobilized with CaptureSelect™ Human Fab-lambda Kinetics Biotin Conjugate (Thermo Fisher Scientific) as a molecule for ligand capturing, followed by the binding of human FcRn diluted in measuring buffer. The activity of the respective antibodies to bind FcRn was assessed by calculating KD(mol/L) by the steady-state model using Biacore T200 Evaluation Software 2.0.
human FcRn, sequence (P55899 24-290 limits assumed, chain 1 of 2): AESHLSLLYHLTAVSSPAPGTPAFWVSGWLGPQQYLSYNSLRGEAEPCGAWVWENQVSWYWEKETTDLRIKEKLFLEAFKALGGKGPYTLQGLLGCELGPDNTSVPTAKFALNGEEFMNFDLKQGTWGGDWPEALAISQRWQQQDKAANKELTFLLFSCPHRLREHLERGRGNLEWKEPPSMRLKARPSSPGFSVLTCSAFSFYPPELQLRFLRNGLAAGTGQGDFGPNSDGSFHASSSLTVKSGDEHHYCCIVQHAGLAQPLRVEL
human FcRn, sequence (P61769 21-119 limits assumed, chain 2 of 2): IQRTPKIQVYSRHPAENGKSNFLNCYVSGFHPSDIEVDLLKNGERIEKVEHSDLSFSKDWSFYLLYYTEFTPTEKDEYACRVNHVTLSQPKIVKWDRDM
B1 came in with a Kd of 1700 nM.

On to B2, for which the affinity, expressed as Kd, was 1330 nM. The Kd values of the last two molecules are within 1.5-fold of each other.

Molecule B3 returned a dissociation constant (Kd) of 1270 nM.

Molecule B4 yielded a Kd of 1100 nM.

In turn, B5 gave an equilibrium dissociation constant (Kd) of 1130 nM.

Another assay addresses T1, human FcgRIIb extracellular domain. The experiment in a line: SPR 25C. As to the method: (§1) Biacore T200 (GE Healthcare) was used to evaluate the binding activity to the respective human Fcγ receptor (hereafter referred to as FcγR). Measurement was performed at 25° C. using 50 mM phosphate, 150 mM NaCl, 0.05 w/v %-P20, pH 7.4 as buffer. About 1000 RU of antibody was captured using a sensor chip immobilized with CaptureSelect™ Human Fab-lambda Kinetics Biotin Conjugate (Thermo Fisher Scientific) as a molecule for ligand capturing. Human FcγR was diluted to 8 nM for FcγRIa and 1000 nM for other FcγR in the measurement buffer, and it was interacted to the captured antibody. The binding activity of each antibody to FcγR was assessed by calculating the binding amount of FcγR (RU) per unit amount of antibody using Biacore T200 Evaluation Software 2.0.
As to B1, the “binding per 1RU antibody” value was found to be 0.143 RU and the “relative binding (A375-G1T3/B167-Lamlib=1)” value (“relative binding” for short) is 13.

For the molecule B2, the “binding per 1RU antibody” value is 0.0766 RU and the “relative binding” value was found to be 6.99.

For B3, the “binding per 1RU antibody” value was determined as 0.0995 RU and the “relative binding” value came to 9.08.

As for B4, the “binding per 1RU antibody” value was found to be 0.0512 RU and the “relative binding” value stood at 4.67.

Consider B5, for which the “binding per 1RU antibody” value was 0.0511 RU and the “relative binding” value was determined as 4.67.

The target in another assay is T2, human FcgRIIa type R extracellular …. Kind of assay: SPR 25C. As to the method: as §1
As for B1, the “binding per 1RU antibody” value came to 0.0371 RU and the “relative binding” value is 0.8.

Consider B2, for which the “binding per 1RU antibody” value worked out at 0.0058 RU and the “relative binding” value turned out to be 0.12.

On to B3, for which the “binding per 1RU antibody” value was 0.0299 RU and the “relative binding” value was 0.64.

Consider B4, for which the “binding per 1RU antibody” value came to 0.0519 RU and the “relative binding” value amounted to 1.12.

Regarding B5, the “binding per 1RU antibody” value turned out to be 0.0518 RU and the “relative binding” value came out at 1.12.

For a further assay, the target named is T4, human FcgRIIIa V158 extracellular domain (human, UniProt P08637 17-208).
T4 construct: extracellular domain; also called hFcgRIIIaV
T4 sequence (P08637 17-208 F176V): as the sequence (P08637 17-208) above, with F160V counted along it
The experiment in a line: SPR 25C. As to the method:
as §1
For the molecule B1, the “binding per 1RU antibody” value is 0.0001 RU and the “relative binding” value was 0.

As for B2, the “binding per 1RU antibody” value was -0.0006 RU and the “relative binding” value was -0.01.

Regarding B3, the “binding per 1RU antibody” value was -0.001 RU and the “relative binding” value was -0.01.

Turning to B4, the “binding per 1RU antibody” value amounted to 0.0014 RU and the “relative binding” value came to 0.02.

On to B5, for which the “binding per 1RU antibody” value was 0.0016 RU and the “relative binding” value is 0.02.

Another assay concerns the target T5, human FcgRIa extracellular domain (human, UniProt P12314 16-292).
T5 construct: extracellular domain; also called hFcgRIa
The experiment in a line: SPR 25C. As to the method:
as §1
With B1, the “binding per 1RU antibody” value is 0.0962 RU and the “relative binding” value was found to be 1.18.

As to B2, the “binding per 1RU antibody” value came out at 0.0044 RU and the “relative binding” value was found to be 0.05.

Turning to B3, the “binding per 1RU antibody” value was determined as 0.0027 RU and the “relative binding” value was 0.03.

B4: the “binding per 1RU antibody” value was found to be 0.0022 RU and the “relative binding” value came to 0.03.

For B5, the “binding per 1RU antibody” value turned out to be 0.0021 RU and the “relative binding” value stood at 0.03.

A further assay has as its target T6, human FcgRIIIa F158 extracellular domain (human, UniProt P08637 17-208).
T6 construct: extracellular domain; also called hFcgRIIIaF
The experiment in a line: SPR 25C. As to the method:
as §1
With B1, the “binding per 1RU antibody” value turned out to be 0.0001 RU and the “relative binding” value is 0.

For B2, the “binding per 1RU antibody” value was -0.0005 RU and the “relative binding” value is -0.02.

With B3, the “binding per 1RU antibody” value is -0.0009 RU and the “relative binding” value was -0.04.

As to B4, the “binding per 1RU antibody” value was 0.0012 RU and the “relative binding” value was determined as 0.06.

With B5, the “binding per 1RU antibody” value is 0.0009 RU and the “relative binding” value worked out at 0.04.

Another assay addresses T3, human FcgRIIa type H extracellular …. Kind of assay: SPR 25C. How it is done:
as §1
For B1, the “binding per 1RU antibody” value is 0.0029 RU and the “relative binding” value came out at 0.05.

In the case of B2, the “binding per 1RU antibody” value worked out at 0.0031 RU and the “relative binding” value was 0.06.

For the molecule B3, the “binding per 1RU antibody” value was 0.0101 RU and the “relative binding” value is 0.18.

For B4, the “binding per 1RU antibody” value is 0.0514 RU and the “relative binding” value stood at 0.91.

As for B5, the “binding per 1RU antibody” value came out at 0.0514 RU and the “relative binding” value is 0.91.
